In patent publication US20190338038A1 (CELLERANT THERAPEUTICS, published 2019):
Read-outs that look alike come from different tables or passages of the source. One block for each molecule: values may come before it.

Columns and labels:
[1] = target: human interleukin 1 receptor accessory protein, membrane-bound form on cells (human) (UniProt Q9NPH3); assay: flow cytometry on primary AML sample 13-AML-02 PB, antibody at 2 ug/mL per paragraph 390
[2] = target: human interleukin 1 receptor accessory protein, membrane-bound form on cells (human) (UniProt Q9NPH3); assay: FACS on EOL-1 cells, FITC; antibody concentration not given
[3] = target: T1, recombinant mouse IL1-RAP (mouse, UniProt Q61730 21-359, limits assumed); assay: FACS (GeoMean), bar series mIL1RAP
T1 sequence (looked up): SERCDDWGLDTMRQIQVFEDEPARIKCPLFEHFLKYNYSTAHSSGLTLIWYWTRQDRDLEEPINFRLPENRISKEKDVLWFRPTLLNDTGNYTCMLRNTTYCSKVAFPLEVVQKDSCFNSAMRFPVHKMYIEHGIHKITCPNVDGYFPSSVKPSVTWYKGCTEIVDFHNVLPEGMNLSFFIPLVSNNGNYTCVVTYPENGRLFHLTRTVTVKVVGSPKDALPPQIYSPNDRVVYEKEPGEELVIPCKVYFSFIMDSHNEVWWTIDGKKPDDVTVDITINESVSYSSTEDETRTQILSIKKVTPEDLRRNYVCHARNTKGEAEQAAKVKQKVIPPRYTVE

[4] = target: T2, human interleukin 1 receptor accessory protein, membrane-bound form on cells (human, UniProt Q9NPH3 21-570); assay: cell-based or functional assay
T2 sequence: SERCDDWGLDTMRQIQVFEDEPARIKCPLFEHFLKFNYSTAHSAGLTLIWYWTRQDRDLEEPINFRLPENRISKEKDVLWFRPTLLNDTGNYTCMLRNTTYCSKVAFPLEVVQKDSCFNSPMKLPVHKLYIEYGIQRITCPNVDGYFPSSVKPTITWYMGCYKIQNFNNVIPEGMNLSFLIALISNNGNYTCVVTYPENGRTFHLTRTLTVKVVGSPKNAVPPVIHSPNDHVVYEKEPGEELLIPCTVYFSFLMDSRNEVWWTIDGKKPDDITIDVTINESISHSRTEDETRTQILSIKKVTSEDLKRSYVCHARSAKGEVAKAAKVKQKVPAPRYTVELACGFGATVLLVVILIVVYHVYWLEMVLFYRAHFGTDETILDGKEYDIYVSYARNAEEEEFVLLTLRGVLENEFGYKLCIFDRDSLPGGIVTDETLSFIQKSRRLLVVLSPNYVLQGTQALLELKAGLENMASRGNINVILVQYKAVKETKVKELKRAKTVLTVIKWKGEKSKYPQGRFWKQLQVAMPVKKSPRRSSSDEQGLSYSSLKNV

[5] = target: T2, human interleukin 1 receptor accessory …; assay: cell-based or functional assay; remark: listed apart in the source
[6] = target: T2, human interleukin 1 receptor accessory …; assay: FACS on EOL-1 cells, FITC; antibody concentration not given
[7] = target: T3, IL1-RAP (antigen of the kinetic measurements of Tables 5A and 5B) (human, UniProt Q9NPH3 21-359, limits assumed); assay: kinetics, Table 5B; method and antigen form not stated
T3 sequence: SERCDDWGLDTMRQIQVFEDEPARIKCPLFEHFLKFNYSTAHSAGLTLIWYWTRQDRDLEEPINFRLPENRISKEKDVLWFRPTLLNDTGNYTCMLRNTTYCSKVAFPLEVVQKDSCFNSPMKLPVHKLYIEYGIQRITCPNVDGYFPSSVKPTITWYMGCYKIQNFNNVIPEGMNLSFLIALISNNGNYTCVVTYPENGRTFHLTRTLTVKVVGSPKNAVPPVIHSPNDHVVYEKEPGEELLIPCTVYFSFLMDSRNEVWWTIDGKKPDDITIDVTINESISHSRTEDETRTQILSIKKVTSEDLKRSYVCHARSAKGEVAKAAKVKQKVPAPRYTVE

[8] = target: T3, IL1-RAP (antigen of the kinetic …); assay: kinetics, Table 5A; method and antigen form not stated
[9] = target: T2, human interleukin 1 receptor accessory …; assay: FACS titration on HNT-34 cells
[10] = target: T2, human interleukin 1 receptor accessory …; assay: FACS titration on EOL-1 cells
[11] = target: T2, human interleukin 1 receptor accessory …; assay: FACS titration on HNT-34 cells in PBS, no competitor
[12] = target: T2, human interleukin 1 receptor accessory …; assay: FACS titration on IL1-RAP transfected 293 cells

- % of cells in the upper right quadrant (CD34 APC high, stain positive) [1]: 1.57%
Molecule: mIgG (antibody)

- MFI [2]: 7.8
B1: Chi54.9D7 HC#1 / h54.9D7 LC2 (antibody, V domains shown)
VH: HVQLQQSGPELVRPGASVKLSCKASGYIFITYWMNWVKQRPGQGLEWVGQIFPASGTTYYNELFEGKATLTVDTSSNTAYMHLTSLTSEDSAVYYCARTDFYRYDGGYALDYWGQGTSLTVSS
VL: DIQLTQSPSSLSASVGDRATITCRASQSVSTSGYSSMHWYQQKPGKAPKLLIYYASDLESGVPSRFSGSGSGTDFTLTISSVQPEDFATYYCHHSWGIPMYTFGQGTKLEIKR

- binding result [3]: no binding (tested: not given)
- % Inhibition at 10 ug/mL of IL-1β-induced NF-κB signaling, HEK-Blue IL-1β cells [4]: 92.3%
- IC50 of inhibition of IL-1β-induced NF-κB signaling, HEK-Blue IL-1β cells [4]: 0.03 µg/mL
- IC50 of inhibition of IL-1β-induced NF-κB signaling, HEK-Blue IL-1β cells [5]: 0.0323 µg/mL
B2: anti-IL1-RAP antibody clone 54.9D7 (antibody, V domains shown)
VH: HVQLQQSGPELVRPGASVKLSCKASGYIFITYWMNWVKQRPGQGLEWVGQIFPASGTTYYNELFEGKATLTVDTSSNTAYMHLTSLTSEDSAVYYCARTDFYRYDGGYALDYWGQGTSLTVSS
VL: DIVLTQSPISLAVFLGQRATISCRASQSVSTSGYSSMHWYQQKAGQPPKLLIKYASDLESGVPVRFSGSGSGTDFILNIHPVEVEDIATYYCHHSWGIPMYTFGGGTKLEIKR
notes: Mouse monoclonal antibody from a hybridoma

- MFI [6]: 124
- Kd [7]: < 0.001 nM
- koff [7]: < 1e-07 s⁻¹
- kon [7]: 169000 M⁻¹ s⁻¹
- Kd [8]: < 0.001 nM
- koff [8]: < 1e-07 s⁻¹
- kon [8]: 141000 M⁻¹ s⁻¹
B3: humanized clone of 54.9D7 hH2L3 (antibody, V domains shown)
VH: QVQLVQSGAEVKKPGASVKVSCKASGYIFITYWMNWVRQAPGQGLEWVGQIFPASGTTYYAQKFQGRVTMTVDTSTSTVYMELSSLRSEDTAVYYCARTDFYRYDGGYALDYWGQGTLVTVSS
VL: DIQLTQSPSSLSASVGDRATITCRASQSVSTSGYSSMHWYQQKPGKAPKLLIKYASDLESGVPSRFSGSGSGTDFTLTISSVQPEDFATYYCHHSWGIPMYTFGQGTKLEIKR
notes: Humanized; also called 54.9D7 H2L3

- MFI [6]: 121
B4: Chi54.9D7 HC#1 / h54.9D7 LC3 (antibody, V domains shown)
VH: HVQLQQSGPELVRPGASVKLSCKASGYIFITYWMNWVKQRPGQGLEWVGQIFPASGTTYYNELFEGKATLTVDTSSNTAYMHLTSLTSEDSAVYYCARTDFYRYDGGYALDYWGQGTSLTVSS
VL: DIQLTQSPSSLSASVGDRATITCRASQSVSTSGYSSMHWYQQKPGKAPKLLIKYASDLESGVPSRFSGSGSGTDFTLTISSVQPEDFATYYCHHSWGIPMYTFGQGTKLEIKR
notes: also called chimeric 54.9D7 heavy chain with humanized LC3

- MFI [6]: 94.3
- Kd [7]: < 0.001 nM
- koff [7]: < 1e-07 s⁻¹
- kon [7]: 193000 M⁻¹ s⁻¹
- Kd [8]: < 0.001 nM
- koff [8]: < 1e-07 s⁻¹
- kon [8]: 177000 M⁻¹ s⁻¹
B5: humanized clone of 54.9D7 hH3L3 (antibody, V domains shown)
VH: QVQLVQSGAEVKKPGASVKLSCKASGYIFITYWMNWVRQAPGQGLEWVGQIFPASGTTYYAQKFQGRATLTVDTSTSTAYMELSSLRSEDTAVYYCARTDFYRYDGGYALDYWGQGTLLTVSS
VL: DIQLTQSPSSLSASVGDRATITCRASQSVSTSGYSSMHWYQQKPGKAPKLLIKYASDLESGVPSRFSGSGSGTDFTLTISSVQPEDFATYYCHHSWGIPMYTFGQGTKLEIKR
notes: Humanized; also called 54.9D7 H3L3

- MFI [6]: 100
- Kd [7]: 0.229 nM
- koff [7]: 3.75e-05 s⁻¹
- kon [7]: 164000 M⁻¹ s⁻¹
- Kd [8]: 0.556 nM
- koff [8]: 7.57e-05 s⁻¹
- kon [8]: 136000 M⁻¹ s⁻¹
B6: humanized clone of 54.9D7 hH1L3 (antibody, V domains shown)
VH: QVQLVQSGAEVKKPGASVKVSCKASGYIFITYWMNWVRQAPGQGLEWMGQIFPASGTTYYAQKFQGRVTMTRDTSTSTVYMELSSLRSEDTAVYYCARTDFYRYDGGYALDYWGQGTLVTVSS
VL: DIQLTQSPSSLSASVGDRATITCRASQSVSTSGYSSMHWYQQKPGKAPKLLIKYASDLESGVPSRFSGSGSGTDFTLTISSVQPEDFATYYCHHSWGIPMYTFGQGTKLEIKR
notes: Humanized; also called 54.9D7 H1L3

- MFI [6]: 75.1
B7: h54.9D7 HC2 / Chi54.9D7 LC#1 (antibody, V domains shown)
VH: QVQLVQSGAEVKKPGASVKVSCKASGYIFITYWMNWVRQAPGQGLEWVGQIFPASGTTYYAQKFQGRVTMTVDTSTSTVYMELSSLRSEDTAVYYCARTDFYRYDGGYALDYWGQGTLVTVSS
VL: DIVLTQSPISLAVFLGQRATISCRASQSVSTSGYSSMHWYQQKAGQPPKLLIKYASDLESGVPVRFSGSGSGTDFILNIHPVEVEDIATYYCHHSWGIPMYTFGGGTKLEIKR
notes: also called humanized 54.9D7 HC2 with the chimeric light chain

- MFI [6]: 21.3
B8: h54.9D7 HC1 / Chi54.9D7 LC#1 (antibody, V domains shown)
VH: QVQLVQSGAEVKKPGASVKVSCKASGYIFITYWMNWVRQAPGQGLEWMGQIFPASGTTYYAQKFQGRVTMTRDTSTSTVYMELSSLRSEDTAVYYCARTDFYRYDGGYALDYWGQGTLVTVSS
VL: DIVLTQSPISLAVFLGQRATISCRASQSVSTSGYSSMHWYQQKAGQPPKLLIKYASDLESGVPVRFSGSGSGTDFILNIHPVEVEDIATYYCHHSWGIPMYTFGGGTKLEIKR
notes: also called humanized 54.9D7 HC1 with the chimeric light chain

- MFI [6]: 20
B9: h54.9D7 HC3 / Chi54.9D7 LC#1 (antibody, V domains shown)
VH: QVQLVQSGAEVKKPGASVKLSCKASGYIFITYWMNWVRQAPGQGLEWVGQIFPASGTTYYAQKFQGRATLTVDTSTSTAYMELSSLRSEDTAVYYCARTDFYRYDGGYALDYWGQGTLLTVSS
VL: DIVLTQSPISLAVFLGQRATISCRASQSVSTSGYSSMHWYQQKAGQPPKLLIKYASDLESGVPVRFSGSGSGTDFILNIHPVEVEDIATYYCHHSWGIPMYTFGGGTKLEIKR
notes: also called humanized 54.9D7 HC3 with the chimeric light chain

- binding result [3]: no binding (tested: not given)
- EC50 (read off the curve) [9]: ~0.2 µg/mL
- EC50 (read off the curve) [10]: ~0.6 µg/mL
- EC50 (read off the curve) [11]: ~0.9 µg/mL
- EC50 (read off the curve) [12]: ~0.4 µg/mL
B10: anti-IL1-RAP antibody clone 56.12G6 (antibody, V domains shown)
VH: RSNYSSLGAELVKPGASVTLSCEASGYTFTSYWIHWVKQRPGQGLEWIGEINPSHGHTTYNEKFKNKATLTVDKSSSTAYMQVSSLTSEDSAVYYCTRHYGSYYFDLWGQGTTLTVSS
VL: QIVLTQSPAIMSAFPGEKVTMTCRASSSVSYMHWYRQKSGTFPKRWIYDTSKLASGVPARFSGSGSGTSYSLTISSMEAEDAATYYCQQWSTNPITFGAGTKLELK
notes: Mouse monoclonal antibody
